Measurements taken from patent US20250049972A1, “METHOD OF DETECTING PROSTATE CANCER IN A HUMAN SUBJECT USING A Cu 64 PSMA I&T INJECTION” (Curium US LLC, priority 2023, published 2025).

Assays:
[1] = Phase 2 diagnostic image quality, 3-point scale, independent readers; assay type: in vivo, human
Procedure: Diagnostic quality was assessed for all scans using a 3-point scale and then percentages for each category were summarized for each reader and time point. No formal hypothesis testing was performed.

[2] = Phase 1 independent reader assessment of image quality (lesion evaluation and general) of 5, 7, 9 mCi scans; assay type: in vivo, human; conditions: for Lesion evaluation Image Quality Score (Mean [SD]) / Number of Lesions visible: 4-hour scans
Procedure: The Phase 1 portion of the study included a total of 12 patients with biochemical, recurrent PC after prostatectomy or radiation therapy. Patients were randomized into 3 groups of 4 patients. Patients in a given group received a single intravenous dose of 5, 7, or 9 mCi (±10%) of copper Cu-64 PSMA I&T. Whole-body PET/CT images were acquired at 1 hour (±15 minutes), 4 hours (±30 minutes), and 24 hours (±2.0 hours) post injection.
The 1-hour and 4-hour PET/CT images were evaluated independently by 3 readers blinded to all patient information, dose administration, and times of acquisition to assess the quality of the images (24 PET/CT image sets total). In addition, readers performed all assessments in one sitting with images scrambled such that the 1- and 4-hour imaging from the same patient was […]. The imaging protocol, scanner qualification, and imaging time/bed position were identical at 1, 4 and 24 hours and kept constant regardless of dose. The assessments were used together with dose reduction modeling to determine an acceptable dose to be administered for the Phase 2 portion of the study defined as the lowest copper Cu-64 PSMA I&T dose that yielded the most clinically relevant diagnostic image quality based on expert consensus review of all measurements and overall image quality.

[3] = parameters: species or system human; conditions: in vivo
Procedure: Safety was assessed in all patients following administration of copper Cu-64 PSMA I&T injection through collection of AE reporting, laboratory assessments, vital signs, and ECG. The Phase 2 portion assessed safety after copper Cu-64 PSMA I&T injection through collection of AEs 24 hours post-injection, lab assessments, vital signs, and ECGs.

[4] = parameters: species or system human; conditions: in vivo; remark: listed apart in the source
Procedure: Radiation dosimetry estimates for normal organs were determined for copper Cu-64 PSMA I&T based on biodistribution collected from the 12 patients enrolled in the trial. Whole-body PET/CT images acquired at 1 hour (±15 minutes), 4 hours (±30 minutes), and 24 hours (±2.0 hours) post injection were used together with blood samples collected prior to and 1, 2, 4, and 24 hours post injection and total voided urine samples collected for 0 to 1-hour and 1 to 4-hour intervals post injection.
This analysis was performed with the objective of estimation of radiation dosimetry of Cu-64 PSMA I&T based on bio-distribution determined using PET image data collected in twelve human subjects. […] The maximum deviation was 13%. Activities were normalized to 100% based on the first imaging time to prevent over or under estimation of absorbed dose.
Third, calculating Source Organ Time-Activity Bio-Kinetic Modeling using bio-distribution data for the listed organs utilizing the following Equation Three: […]
The bio-distribution data for the listed organs and remainder tissues in the study may be determined using the image quantification methodology described above. Organ and tissue data may be decay corrected to fit in a least squares sense using non-linear regression with sums of exponentials of the form shown in Equation Three.

In the case of O=C(O)CC[C@H](NC(=O)N[C@@H](CCCCNC(=O)CCCCCCC(=O)NCCCC[C@@H](NC(=O)[C@@H](Cc1ccccc1)NC(=O)[C@@H](Cc1ccc(O)c(I)c1)NC(=O)CC[C@H](C(=O)O)N1CCN(CC(=O)O)CCN(CC(=O)O)CCN(CC(=O)O)CC1)C(=O)O)C(=O)O)C(=O)O [Cu-64 PSMA I&T, 64 Cu-(3S, 7S, 26R, 29R, 32R, 37R)-29-benzyl-32(4-hydroxy-3-iodobenzyl)-5, 13, 20, 28, 31, 34-hexaoxo-37-(4,7,10-tris(carboxymethyl)-1,4,7, 10-tetraazacyclododecan-1-yl)-4,6, 12, 21, 27, 30, 33-heptaazaheptatriacontane-1,3,7, 26, 37-pentacarboxylic acid, metal not drawn], the “Image Quality Acceptable, patients (%)” value ([1]; Reader 1, 1 Hour Post Dose) is reported as 26 (100.00%), the “Image Quality Acceptable, patients (%)” value ([1]; Reader 1, 4 Hours Post Dose) is reported as 26 (100.00%) and the “Image Quality Acceptable, patients (%)” value ([1]; Reader 2, 1 Hour Post Dose) is reported as 24 (92.31%). The “Image Quality Acceptable, patients (%)” value ([1]; Reader 2, 4 Hours Post Dose) was 26 (100.00%), the “Image Quality Acceptable, patients (%)” value ([1]; Reader 3, 1 Hour Post Dose) was 26 (100.00%) and the “Image Quality Acceptable, patients (%)” value ([1]; Reader 3, 4 Hours Post Dose) was 26 (100.00%). For the same compound, the “image quality as assessed by the independent readers” value ([1]; at both 1 and 4 hours) was “acceptable”, the “Average general image quality across timepoints” value ([2]; 5 mCi (n = 4)) was 1.63 (0.58) and the “Average general image quality across timepoints” value ([2]; 7 mCi (n = 4)) was 1.58 (0.58). For the same compound, the “Average general image quality across timepoints” value ([2]; 9 mCi) was 1.71 (0.46), the “Lesion evaluation Image Quality Score (Mean [SD])” value ([2]; Reader 1, 5 mCi) was 2.00 (0.00) and the “Number of Lesions visible” value ([2]; Reader 1, 5 mCi) was 19. For the same compound, the “Lesion evaluation Image Quality Score (Mean [SD])” value ([2]; Reader 1, 7 mCi) was 2.00 (0.00), the “Number of Lesions visible” value ([2]; Reader 1, 7 mCi) was 15 and the “Lesion evaluation Image Quality Score (Mean [SD])” value ([2]; Reader 1, 9 mCi) was 2.00 (0.00). The “Number of Lesions visible” value ([2]; Reader 1, 9 mCi) was 12, the “General Image Quality score (Mean [SD])” value ([2]; Reader 1, 1 hour, 5 mCi (n = 4)) was 2.00 (0.00) and the “General Image Quality score (Mean [SD])” value ([2]; Reader 1, 1 hour, 7 mCi (n = 4)) was 2.00 (0.00). For the same compound, the “General Image Quality score (Mean [SD])” value ([2]; Reader 1, 1 hour, 9 mCi) was 1.75 (0.50), the “General Image Quality score (Mean [SD])” value ([2]; Reader 1, 4 hours, 5 mCi (n = 4)) was 1.75 (0.50) and the “General Image Quality score (Mean [SD])” value ([2]; Reader 1, 4 hours, 7 mCi (n = 4)) was 2.00 (0.00). For the same compound, the “General Image Quality score (Mean [SD])” value ([2]; Reader 1, 4 hours, 9 mCi) was 1.75 (0.50), the “Lesion evaluation Image Quality Score (Mean [SD])” value ([2]; Reader 2, 5 mCi) was 2.00 (0.00) and the “Number of Lesions visible” value ([2]; Reader 2, 5 mCi) was 17. The “Lesion evaluation Image Quality Score (Mean [SD])” value ([2]; Reader 2, 7 mCi) was 1.77 (0.44), the “Number of Lesions visible” value ([2]; Reader 2, 7 mCi) was 13 and the “Lesion evaluation Image Quality Score (Mean [SD])” value ([2]; Reader 2, 9 mCi) was 2.00 (0.00). The “Number of Lesions visible” value ([2]; Reader 2, 9 mCi) was 13, the “General Image Quality score (Mean [SD])” value ([2]; Reader 2, 1 hour, 5 mCi (n = 4)) was 2.00 (0.00) and the “General Image Quality score (Mean [SD])” value ([2]; Reader 2, 1 hour, 7 mCi (n = 4)) was 1.00 (0.82). For the same compound, the “General Image Quality score (Mean [SD])” value ([2]; Reader 2, 1 hour, 9 mCi) was 1.75 (0.50), the “General Image Quality score (Mean [SD])” value ([2]; Reader 2, 4 hours, 5 mCi (n = 4)) was 2.00 (0.00) and the “General Image Quality score (Mean [SD])” value ([2]; Reader 2, 4 hours, 7 mCi (n = 4)) was 1.50 (0.58). For the same compound, the “General Image Quality score (Mean [SD])” value ([2]; Reader 2, 4 hours, 9 mCi) was 2.00 (0.00), the “Number of Lesions visible” value ([2]; Reader 3, 5 mCi) was 19 and the “Number of Lesions visible” value ([2]; Reader 3, 7 mCi) was 12. The “Lesion evaluation Image Quality Score (Mean [SD])” value ([2]; Reader 3, 9 mCi) was 1.85 (0.38), the “Number of Lesions visible” value ([2]; Reader 3, 9 mCi) was 13 and the “General Image Quality score (Mean [SD])” value ([2]; Reader 3, 1 hour, 5 mCi (n = 4)) was 1.00 (0.00). The “General Image Quality score (Mean [SD])” value ([2]; Reader 3, 1 hour, 7 mCi (n = 4)) was 1.25 (0.50), the “General Image Quality score (Mean [SD])” value ([2]; Reader 3, 1 hour, 9 mCi) was 1.50 (0.58) and the “General Image Quality score (Mean [SD])” value ([2]; Reader 3, 4 hours, 5 mCi (n = 4)) was 1.00 (0.82). The “General Image Quality score (Mean [SD])” value ([2]; Reader 3, 4 hours, 7 mCi (n = 4)) was 1.75 (0.50), the “General Image Quality score (Mean [SD])” value ([2]; Reader 3, 4 hours, 9 mCi) was 1.50 (0.58) and the “QIQS (general image quality), lowest score” value ([2]; at 4 hours, 5, 7 and 9 mCi, all readers) was ≥ 1.00. The “patients who experienced at least 1 AE” value [3] was 2, the “relationship of the adverse events to study product” value [3] was “not related” and the “serious adverse events attributed to the injection” value [3] was “No serious adverse events”. For the same compound, the “seriousness of the adverse events” value [3] was “not serious”, the “severity of the adverse events” value [3] was “mild” and the “Normalized Number of Disintegrations, Mean, Remainder” value ([4]; human) was 6.9 h. For the same compound, the “Dose Estimate, Mean, Adrenals” value [4] was 0.045 mGy/MBq, the “Dose Estimate, Mean, Brain” value [4] was 0.011 mGy/MBq and the “Dose Estimate, Mean, Esophagus” value [4] was 0.020 mGy/MBq. For the same compound, the “Dose Estimate, Mean, Eyes” value [4] was 0.010 mGy/MBq, the “Dose Estimate, Mean, Gallbladder Wall” value [4] was 0.051 mGy/MBq and the “Dose Estimate, Mean, Heart Wall” value [4] was 0.055 mGy/MBq. For the same compound, the “Dose Estimate, Mean, Kidneys” value [4] was 0.19 mGy/MBq, the “Dose Estimate, Mean, Lacrimal Glands” value [4] was 0.16 mGy/MBq and the “Dose Estimate, Mean, Left colon” value [4] was 0.25 mGy/MBq. The “Dose Estimate, Mean, Liver” value [4] was 0.25 mGy/MBq, the “Dose Estimate, Mean, Lungs” value [4] was 0.018 mGy/MBq and the “Dose Estimate, Mean, Osteogenic Cells” value [4] was 0.018 mGy/MBq. For the same compound, the “Dose Estimate, Mean, Pancreas” value [4] was 0.054 mGy/MBq, the “Dose Estimate, Mean, Pituitary” value [4] was 0.037 mGy/MBq and the “Dose Estimate, Mean, Prostate” value [4] was 0.027 mGy/MBq. For the same compound, the “Dose Estimate, Mean, Rectum” value [4] was 0.15 mGy/MBq, the “Dose Estimate, Mean, Red Marrow” value [4] was 0.023 mGy/MBq and the “Dose Estimate, Mean, Right colon” value [4] was 0.22 mGy/MBq. For the same compound, the “Dose Estimate, Mean, Salivary Glands” value [4] was 0.12 mGy/MBq, the “Dose Estimate, Mean, Small Intestine” value [4] was 0.067 mGy/MBq and the “Dose Estimate, Mean, Spleen” value [4] was 0.048 mGy/MBq. For the same compound, the “Dose Estimate, Mean, Stomach Wall” value [4] was 0.063 mGy/MBq, the “Dose Estimate, Mean, Testes” value [4] was 0.035 mGy/MBq and the “Dose Estimate, Mean, Thymus” value [4] was 0.015 mGy/MBq. For the same compound, the “Dose Estimate, Mean, Thyroid” value [4] was 0.015 mGy/MBq, the “Dose Estimate, Mean, Total Body” value [4] was 0.022 mGy/MBq and the “Dose Estimate, Mean, Urinary Bladder Wall” value [4] was 0.074 mGy/MBq. For the same compound, the “Normalized Number of Disintegrations, Mean, Heart wall” value [4] was 0.17 h, the “Normalized Number of Disintegrations, Mean, Kidneys” value [4] was 0.69 h and the “Normalized Number of Disintegrations, Mean, Lacrimal Glands” value [4] was 0.0033 h. The “Normalized Number of Disintegrations, Mean, Liver” value [4] was 5.0 h, the “Normalized Number of Disintegrations, Mean, Pancreas” value [4] was 0.058 h and the “Normalized Number of Disintegrations, Mean, Pituitary” value [4] was 0.00033 h. The “Normalized Number of Disintegrations, Mean, Prostate” value [4] was 0.0047 h, the “Normalized Number of Disintegrations, Mean, Red Marrow” value [4] was 0.28 h and the “Normalized Number of Disintegrations, Mean, Salivary glands” value [4] was 0.12 h. For the same compound, the “Normalized Number of Disintegrations, Mean, Spleen” value [4] was 0.096 h, the “Normalized Number of Disintegrations, Mean, Stomach Wall” value [4] was 0.083 h and the “Normalized Number of Disintegrations, Mean, Testes” value [4] was 0.015 h. For the same compound, the “Normalized Number of Disintegrations, Mean, Thyroid” value [4] was 0.0035 h and the “Normalized Number of Disintegrations, Mean, Whole Body” value [4] was 15 h.
